Tested on: rigid clots (pooled rabbit plasma, fresh rabbit blood cells, thrombin)
Experiment: Sonothrombolysis of aged and rigid clots, 1 MHz pulsed ultrasound in a Mylar flow chamber
Settings: 0.1 mg/mL of tPA and/or MBs at about 0.5-2.5×10^8 MB/mL
Procedure: To assess the effect of CPDL and/or degradable starch nanoparticles on the efficacy of sonothrombolysis, the following experiment was conducted. Rigid clots were formed by mixing pooled rabbit plasma with fresh rabbit blood cells and 30 U/mL of thrombin. The clots were incubated at 37° C. in glass tubes for 24 h followed by curing at 5° C. for 24 h. The total clot volumes and mass densities of each main clot were measured, and then 9-11 mg pieces were cut from the main clot. Each clot piece was weighed and then insonated with 1 MHz, pulsed ultrasound in a Mylar flow chamber through which fresh rabbit serum containing tPA and/or microbubbles (MBs) were introduced continuously. Sonothrombolysis efficacy was quantified as the % of clot mass lysed in 15 min. A stable nanoemulsion of CPDL at a concentration ranging from about 0.003-0.06% w/V, and/or 50-200 nm degradable starch nanoparticles were added to the system to enhance sonothrombolysis efficacy.

B1: tPA: tissue plasminogen activator (protein, UniProt P00750 36-562, looked up)
Tissue-type plasminogen …: SYQVICRDEKTQMIYQQHQSWLRPVLRSNRVEYCWCNSGRAQCHSVPVKSCSEPRCFNGGTCQQALYFSDFVCQCPEGFAGKCCEIDTRATCYEDQGISYRGTWSTAESGAECTNWNSSALAQKPYSGRRPDAIRLGLGNHNYCRNPDRDSKPWCYVFKAGKYSSEFCSTPACSEGNSDCYFGNGSAYRGTHSLTESGASCLPWNSMILIGKVYTAQNPSAQALGLGKHNYCRNPDGDAKPWCHVLKNRRLTWEYCDVPSCSTCGLRQYSQPQFRIKGGLFADIASHPWQAAIFAKHRRSPGERFLCGGILISSCWILSAAHCFQERFPPHHLTVILGRTYRVVPGEEEQKFEVEKYIVHKEFDDDTYDNDIALLQLKSDSSRCAQESSVVRTVCLPPADLQLPDWTECELSGYGKHEALSPFYSERLKEAHVRLYPSSRCTSQHLLNRTVTDNMLCAGDTRSGGPQANLHDACQGDSGGPLVCLNDGRMTLVGIISWGLGCGQKDVPGVYTKVTNYLDWIRDNMRP
- efficacy of sonothrombolysis for more rigid and aged clots: reduced markedly

From US20130331738A1, “COMPOSITIONS AND METHODS FOR POTENTIATING SONOTHROMBOLYSIS” (Board of Trustees University of Arkansas, priority 2012, published 2013)
